Here are results for two proteins from patent publication US20140066321A1 (PANGU BIOPHARMA, published 2014).

Series [1] deals with the molecule itself. The experiment in a line: X-ray crystal structure at 2.4 Å (self-association, homodimer). As to the method:
To set up a […], 1 μl of protein sample was mixed with 1 μl of crystallization solution with 0.2 M ammonium citrate. […] Before diffraction experiments, crystals were soaked in crystallization solution containing […] for cryoprotection. […] Specifically, crystals were soaked in crystallization solution containing 10-20% glycerol for 5-10 mins. The diffraction data were collected at the Shanghai Synchrotron Radiation Facility and were processed and scaled using HKL2000.
The phase was improved by density modifications with RESOLVE. The initial model was built in COOT. […] The models were refined in Refmac5 and PHENIX. […] All structure figures were prepared by PyMOL

Series [2] deals with the molecule itself. The series is described as follows: size exclusion chromatography (self-association, homodimer). As to the method:
The cDNA encoding native human cytoplasmic HRS and the splice variant HRSΔCD were cloned into a modified pET32 vector and fused to the N-terminal thioredoxin-His₆-tags. The fusion proteins were expressed in E. coli BL21(DE3) and first purified by Ni²⁺-NTA affinity chromatography Next, the thioredoxin-His₆-tag was removed by protease-3C digestion. The cleaved protein mixtures were further separated by a size-exclusion chromatography in a buffer containing 50 mM Tris (pH 7.5), 100 mM NaCl, 1 mM EDTA and 1 mM […] Native HRS and HRSΔCD mutants were created using the standard PCR-based mutagenesis method. The mutant proteins were purified using a protocol identical to that used for native HRS and HRSΔCD. Analytical gel filtration chromatography was carried out on an AKTA FPLC system (GE Healthcare). Proteins were loaded onto a Superose 12 10/300 GL column (GE Healthcare) equilibrated with a buffer containing 50 mM Tris (pH 7.5), 100 mM NaCl, […] EDTA and 1 mM […].
For orientation: SEC sorts molecules by how far they enter the pores of the column.

B1: human HRS variant with deletion of residues 1-53 and residues 507-509 (HRS Δ1-53-Δ507-509) (enzyme)
chain: FVLKTPKGTRDYSPRQMAVREKVFDVIIRCFKRHGAEVIDTPVFELKETLMGKYGEDSKLIYDLKDQGGELLSLRYDLTVPFARYLAMNKLTNIKRYHIAKVYRRDNPAMTRGRYREFYQCDFDIAGNFDPMIPDAECLKIMCEILSSLQIGDFLVKVNDRRILDGMFAICGVSDSKFRTICSSVDKLDKVSWEEVKNEMVGEKGLAPEVADRIGDYVQQHGGVSLVEQLLQDPKLSQNKQALEGLGDLKLLFEYLTLFGIDDKISFDLSLARGLDYYTGVIYEAVLLQTPAQAGEEPLGVGSVAAGGRYDGLVGMFDPKGRKVPCVGLSIGVERIFSIVEQRLEALEEKIRTTETQVLVASAQKKLLEERLKLVSELWDAGIKAELLYKKNPKLLNQLQYCEEAGIPLVAIIGEQELKDGVIKLRSVTSREEVDVRREDLVEEIKRRTGQPL
notes: the row under measurements tells of its self-association into a dimer in the crystal structure
In the case of B1, in series [1], the binding result is on record as “binds”.

B2: human HRS variant with deletion of residues 507-509 (HRS Δ507-509) (enzyme)
chain: MAERAALEELVKLQGERVRGLKQQKASAELIEEEVAKLLKLKAQLGPDESKQKFVLKTPKGTRDYSPRQMAVREKVFDVIIRCFKRHGAEVIDTPVFELKETLMGKYGEDSKLIYDLKDQGGELLSLRYDLTVPFARYLAMNKLTNIKRYHIAKVYRRDNPAMTRGRYREFYQCDFDIAGNFDPMIPDAECLKIMCEILSSLQIGDFLVKVNDRRILDGMFAICGVSDSKFRTICSSVDKLDKVSWEEVKNEMVGEKGLAPEVADRIGDYVQQHGGVSLVEQLLQDPKLSQNKQALEGLGDLKLLFEYLTLFGIDDKISFDLSLARGLDYYTGVIYEAVLLQTPAQAGEEPLGVGSVAAGGRYDGLVGMFDPKGRKVPCVGLSIGVERIFSIVEQRLEALEEKIRTTETQVLVASAQKKLLEERLKLVSELWDAGIKAELLYKKNPKLLNQLQYCEEAGIPLVAIIGEQELKDGVIKLRSVTSREEVDVRREDLVEEIKRRTGQPL
notes: the row under measurements tells of its self-association into a dimer (size exclusion chromatography)
As for B2, the binding result in series [2] is given as “binds”.
